Data from the nanobody polyreactivity screen of Harvey et al. (2022).

Assay: yeast display, Sf9 membrane polyspecificity reagent, FACS + sequencing; frameworks hold sequencing errors
In short: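 A nanobody's polyreactivity label depends on the gate it was sorted from. Yeast display cells were stained with 10% biotinylated, detergent-solubilized Sf9 membrane reagent for 1 hour at 4 °C, enriched on streptavidin microbeads and sorted by FACS. The low and high (top ~1%) gates were set on anti-HA fluorescence for expression and streptavidin fluorescence for reagent binding.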

Sequence	polyreactivity (PSR sort gate)
QVQLVESGGGLVQAGGSLRLSCAASGLTFVRYAMGWYRQAPGKERELVAAISARGGSTYYADSVKGRFTISRDNAKNTVYLQMNSLKPEDTAVYYCNTVRVHGFPIDRIYDYWGQGTQVTVSS	high polyreactivity
QVQLVESGGGLVQAGGSLRLSCAASGLTFVSYAMGWSRQAPGQEREFVAAINRSGGSPYYADSVKGRFTISRDNAKTTVYLQMNSLKPEDTALYYCAARRNLAYYHSGYWGQGTQVTVSS	high polyreactivity
QVQLVESGGGLVQAGGSLRLSCAASGLTFVWYGMGRYRQAPGKERELVAAITRGGSTYYADSVKGRFTISRDNAKNTVYLQMNSLKPEDTAVYYCAARRWERRVRPGYYPYDYWGQGTQVTVSS	high polyreactivity
QVQLVESGGGLVQAGGSLRLSCAASGLTFVYNTMGWYRQAPGKERELVAAINWSGGRTYYADSVKGRFTISRDNAKNTVYLQMNSLKPEDTAVYYCAALYVPNTPTYKYDYWGQGTQVTVSS	low polyreactivity
QVQLVESGGGLVQAGGSLRLSCAASGLTFVYYAMGWYRQAPGKERELVAAISESGTSTYYADSVKGRFTISRDNAKNTVYLQMNSLKPEDTAVYYCAAKDSYYEMDYWGQGTQVTVSS	high polyreactivity
QVQLVESGGGLVQAGGSLRLSCAASGLTFVYYAMGWYRQAPGNERELVAAISRRGGSTNYADSVKGRFTISRDNAKNTVYLQMNSLKPEDTAVYYCAATSRYFQPPGYGGGRIGYGYWGQGTQVTVSS	high polyreactivity
QVQLVESGGGLVQAGGSLRLSCAASGLTFWDNAMGWYRQAPGKERELVAAIRGGGSTYYADSVKGRFTISRDNAKNTVYLQMNSLKPEDTAVYYCNAESYQDTLFGADNDYDYWGQGTQVTVSS	low polyreactivity
QVQLVESGGGLVQAGGSLRLSCAASGLTFWSYAMGWYRQAPGKERELVAAISKRGGSTYYADSVKGRFTISRDNAKNTVYLQMNSLKPEDTAVYYCAARTFRALNKYYYWGQGTQVTVSS	high polyreactivity
QVQLVESGGGLVQAGGSLRLSCAASGLTFWYYDMGWYRQAPGKERELVAAISGTGSTYADSVKGRFTISRDNAKNTVYLQMNSLKPEDTAVYYCAADYSGTPYAVYWQWGDYDYWGQGTQVTVSS	low polyreactivity
QVQLVESGGGLVQAGGSLRLSCAASGLTFYHYDMGWYRQAPGIETELVAAITNGGSTYYADSVKGRFTISRDNAKNTVYLQMNSLKPEDTAVYYCAADGSGYYDWYYYWGQVTQVTVSS	low polyreactivity
QVQLVESGGGLVQAGGSLRLSCAASGLTFYKNAMGWYRQAPGKEKELVAAISDSGGSTYYADSVKGRFTISRDNAKNTVYLQMNSLKPEDTAVCYCNARRRVYYKGFDYWGQGTQVTVSS	high polyreactivity
QVQLVESGGGLVQAGGSLRLSCAASGLTFYLYAMGWYRQAPGKERELVAAITSGGSTYYADSVKGRFTISRDNAKNTVYLQMNSLKPEDTAVYYCNKLTYGRVWDHHYDYWGQVTQVTVSS	low polyreactivity
QVQLVESGGGLVQAGGSLRLSCAASGLTFYPYAMGWYRQAPGKERELVAAINWSGTTTYYADSVKGRFTISRDNAKNTVYLQMNSLKPEDTAVYYCAAHYTTFIPSPDGDYLGQGTQVTVSS	low polyreactivity
QVQLVESGGGLVQAGGSLRLSCAASGLTFYRNAMGWYRQAPGKEREFVAAITSTDGSTYYADSVKGRFTISRDNAKNTVYLQMNSLKPEDTAVYYCAARRRRWSGYWGQGTQVTVSS	high polyreactivity
QVQLVESGGGLVQAGGSLRLSCAASGLTFYRYAMGWYRQAPGKERELVAAITSGTRTYYADSVKGRFTISRDNAKNTVYLQMNSLKPEDTAVYYCAFRQGWYHFRYDYWGQGTQVTVSS	high polyreactivity
QVQLVESGGGLVQAGGSLRLSCAASGLTFYSNAMGWYRQAPGKERELVARISTGGSTYADSVKGRFTISRDNAKNTVYLQMNSLKPVDTAVYYCAVDGWDDTYFRQDMDYWGQGTQVTVSS	low polyreactivity

Sequence	polyreactivity (PSR sort gate)
QVQLVESGGGLVQAGGSLRLSCAASGLTFYTNAMGSYRQAPGKERELLAAITSSGGRTYYADSVKGRFTISRDNAKYTVYLQMNSLKPEDTAVYYCAADARRPRIPEMYYWGLGTQVTVSS	high polyreactivity
QVQLVESGGGLVQAGGSLRLSCAASGLTFYYNAMGWYRQAPGKERELVAAISFSGGRTYYADSVKGRFTISRDNAKNTVYLQMNSLKPEDTAVYYCAADWVRNWYTSGSWGQGTQVTVSS	high polyreactivity
QVQLVESGGGLVQAGGSLRLSCAASGLTFYYNAMGWYRQAPGKERELVAAISRYGGSTYYADSVKGRFRISRDNAKNTDYLQMNSLKPEDTAVYYCAVAYVYTRKGRVQPVKYDYWGQGTQVTVSS	high polyreactivity
QVQLVESGGGLVQAGGSLRLSCAASGLTFYYNAMGWYRQAPGKERELVAAITWSTDSTYYADSVKGRFTISRDNAKNTVYLQMNSLKPEDTAVYYCAAAVDAFTNKQYYYWGQGTQVTVSS	low polyreactivity
QVQLVESGGGLVQAGGSLRLSCAASGLTFYYYAMGWYRQAPGKERELVAGISGSDGSTYYADSVKGRFTISRDNAKNTVYLQMNSLKPEDTAVYYCAAEYYYPWPLYYITDGIYDMYYWGQGTQVTVSS	low polyreactivity
QVQLVESGGGLVQAGGSLRLSCAASGLTFYYYAMGWYRQAPGKERELVATISGSGGNTYYADSVKGRFTISRDNAKNTVFLQMNSLKPEDTAVYYCNARYRWWLYYSRDRVYYWGQGTQVTVSS	high polyreactivity
QVQLVESGGGLVQAGGSLRLSCAASGLTFYYYVMGWYRQAPGKERELVAAISKSGGRTYYADSVKGRFTISRDNAKNTVYLQMNSLKPEDSAVYYCAAMYTPNYTAYDSWGQGTQVTVSS	high polyreactivity
QVQLVESGGGLVQAGGSLRLSCAASGLTFYYYVMGWYRQAPGKERELVAAISKSGGRTYYADSVKGRFTISRDNAKNTVYLQMNSLKPEDTAVYYCAALYTPNYTAYDSWGQGTQVTVSS	high polyreactivity
QVQLVESGGGLVQAGGSLRLSCAASGLTIFVYAMGWSRQAPGKERELVAAISDSGGSTYYADSVKGRFTISRDNAKNTVYLQMNSLKPEDTAVYYCAADYRGIYSGIWGDYWGQGTQVTVSS	low polyreactivity
QVQLVESGGGLVQAGGSLRLSCAASGLTIGYYAMGWYRQAPGKERELVAAISGSGGATYYADSVKGRFTISRDNAKNTVYLQMNSLKPEDTAVYYCAAKWGRTGRFDYWGQGTQVTVSS	low polyreactivity
QVQLVESGGGLVQAGGSLRLSCAASGLTIQRNDMGWYRQAPGKEREFVATITSNAGSTYYADSVKGRFTISRDNAKNTVYLQMNSLKPEDTAVYYCARERWWGGSDYWGQGTQVTVSS	high polyreactivity
QVQLVESGGGLVQAGGSLRLSCAASGLTIRSYGMGWYRQAPGKERELVASITWSGGSTYYADSVKGRFTISRDNAKNTVYLQMNSLKPEDTAVYYCAASFDFQGYHYGYWGQGTQVTVSS	high polyreactivity
QVQLVESGGGLVQAGGSLRLSCAASGLTISYYAMGWYRQAPGKERELVAAISTDSSTNYADSVKGRFTISRDNAKNTVYLQMISLKPEDTAVYYCAAVVVYGPIHGYWGQGTQVTVSS	low polyreactivity
QVQLVESGGGLVQAGGSLRLSCAASGLTIWRYAMGWYRQAPGKEREFVATISQYGGRTYYAASVKGRFTITRDNAKKTVNLQMNSLKPEDTAVYYCAADDWRWGYDYWGPGTQVTVSS	high polyreactivity
QVQLVESGGGLVQAGGSLRLSCAASGLTLAPNAMGWYRQSPGKERELVAAITRSGGDTYYADSVKGRFTISRDTAKNTVYLQMNSLKPEDTAVYYCAADYWFRYGTYTGLTSYYYWGQGTQVTVSS	high polyreactivity
